Data: publication PMC10397247

How the values were obtained:
4H1845-bH = target: T1, 4H1845-bH; assay: two-hybrid library CCNG1;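 further: natural log of median RNA to DNA barcode read ratio; higher means stronger binding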
T1 chain: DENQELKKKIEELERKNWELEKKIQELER

4H2442-bH = target: T2, 4H2442-bH; assay: two-hybrid library CCNG1;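 further: natural log of median RNA to DNA barcode read ratio; higher means stronger binding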
T2 chain: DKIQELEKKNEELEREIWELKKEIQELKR

4H2576-bH = target: T3, 4H2576-bH; assay: two-hybrid library CCNG1;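 further: natural log of median RNA to DNA barcode read ratio; higher means stronger binding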
T3 chain: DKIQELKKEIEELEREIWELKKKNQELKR

4H2610-bH = target: T4, 4H2610-bH; assay: two-hybrid library CCNG1;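 further: natural log of median RNA to DNA barcode read ratio; higher means stronger binding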
T4 chain: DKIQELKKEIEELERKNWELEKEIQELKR

4H2618-bH = target: T5, 4H2618-bH; assay: two-hybrid library CCNG1
T5 chain: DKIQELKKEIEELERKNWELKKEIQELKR

4H2667-bH = target: T6, 4H2667-bH; assay: two-hybrid library CCNG1
T6 chain: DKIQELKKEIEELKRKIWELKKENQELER

4H2697-bH = target: T7, 4H2697-bH; assay: two-hybrid library CCNG1
T7 chain: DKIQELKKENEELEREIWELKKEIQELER

4H2717-bN = target: T8, 4H2717-bN; assay: two-hybrid library CCNG1
T8 chain: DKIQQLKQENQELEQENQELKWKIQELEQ

4H2729-bH = target: T9, 4H2729-bH; assay: two-hybrid library CCNG1
T9 chain: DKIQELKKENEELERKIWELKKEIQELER

4H3112-bH = target: T10, 4H3112-bH; assay: two-hybrid library CCNG1
T10 chain: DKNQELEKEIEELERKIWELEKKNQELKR

4H3185-bH = target: T11, 4H3185-bH; assay: two-hybrid library CCNG1
T11 chain: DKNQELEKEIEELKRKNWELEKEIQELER

4H3189-bH = target: T12, 4H3189-bH; assay: two-hybrid library CCNG1
T12 chain: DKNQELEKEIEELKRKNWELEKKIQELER

4H331-bH = target: T13, 4H331-bH; assay: two-hybrid library CCNG1
T13 chain: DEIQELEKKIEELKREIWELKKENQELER

4H3354-bH = target: T14, 4H3354-bH; assay: two-hybrid library CCNG1
T14 chain: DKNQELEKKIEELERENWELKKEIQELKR

4H338-bH = target: T15, 4H338-bH; assay: two-hybrid library CCNG1
T15 chain: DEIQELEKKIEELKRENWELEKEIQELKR

4H3427-bH = target: T16, 4H3427-bH; assay: two-hybrid library CCNG1
T16 chain: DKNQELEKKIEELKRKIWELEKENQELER

4H3606-bH = target: T17, 4H3606-bH; assay: two-hybrid library CCNG1
T17 chain: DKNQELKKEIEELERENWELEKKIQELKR

4H370-bH = target: T18, 4H370-bH; assay: two-hybrid library CCNG1
T18 chain: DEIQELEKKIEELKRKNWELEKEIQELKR

4H3782-bH = target: T19, 4H3782-bH; assay: two-hybrid library CCNG1
T19 chain: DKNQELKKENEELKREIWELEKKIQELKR

4H3843-bH = target: T20, 4H3843-bH; assay: two-hybrid library CCNG1
T20 chain: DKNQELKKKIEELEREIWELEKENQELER

4H3855-bH = target: T21, 4H3855-bH; assay: two-hybrid library CCNG1
T21 chain: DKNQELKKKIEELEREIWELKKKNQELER

4H4001-bH = target: T22, 4H4001-bH; assay: two-hybrid library CCNG1
T22 chain: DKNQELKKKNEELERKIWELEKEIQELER

4H4001-bN = target: T23, 4H4001-bN; assay: two-hybrid library CCNG1
T23 chain: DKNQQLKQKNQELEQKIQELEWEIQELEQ

4H454-bH = target: T24, 4H454-bH; assay: two-hybrid library CCNG1
T24 chain: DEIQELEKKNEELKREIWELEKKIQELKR

4H462-bH = target: T25, 4H462-bH; assay: two-hybrid library CCNG1
T25 chain: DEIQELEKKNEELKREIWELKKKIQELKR

4H568-bH = target: T26, 4H568-bH; assay: two-hybrid library CCNG1
T26 chain: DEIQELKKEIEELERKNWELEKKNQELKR

4H575-bA = target: T27, 4H575-bA; assay: two-hybrid library CCNG1
T27 chain: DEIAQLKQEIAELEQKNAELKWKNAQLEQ

4H607-bH = target: T28, 4H607-bH; assay: two-hybrid library CCNG1
T28 chain: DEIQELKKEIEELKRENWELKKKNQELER

4H687-bH = target: T29, 4H687-bH; assay: two-hybrid library CCNG1
T29 chain: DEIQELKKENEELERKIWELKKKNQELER

4H717-bH = target: T30, 4H717-bH; assay: two-hybrid library CCNG1
T30 chain: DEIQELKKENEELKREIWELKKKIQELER

4H72-bH = target: T31, 4H72-bH; assay: two-hybrid library CCNG1
T31 chain: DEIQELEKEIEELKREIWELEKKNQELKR

4H754-bH = target: T32, 4H754-bH; assay: two-hybrid library CCNG1
T32 chain: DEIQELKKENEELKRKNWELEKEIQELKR

4H797-bH = target: T33, 4H797-bH; assay: two-hybrid library CCNG1
T33 chain: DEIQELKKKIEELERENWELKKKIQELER

4H883-bH = target: T34, 4H883-bH; assay: two-hybrid library CCNG1
T34 chain: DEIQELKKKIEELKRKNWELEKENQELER

4H908-bH = target: T35, 4H908-bH; assay: two-hybrid library CCNG1
T35 chain: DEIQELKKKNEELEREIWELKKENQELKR

4H918-bH = target: T36, 4H918-bH; assay: two-hybrid library CCNG1
T36 chain: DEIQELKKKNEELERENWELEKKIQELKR

4H918-bN = target: T37, 4H918-bN; assay: two-hybrid library CCNG1
T37 chain: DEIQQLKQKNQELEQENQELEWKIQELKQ

4H953-bH = target: T38, 4H953-bH; assay: two-hybrid library CCNG1
T38 chain: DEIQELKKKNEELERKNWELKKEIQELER

4H967-bH = target: T39, 4H967-bH; assay: two-hybrid library CCNG1
T39 chain: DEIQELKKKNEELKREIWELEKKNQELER

O7-bN = target: T40, O7-bN; assay: two-hybrid library CCNG1
T40 chain: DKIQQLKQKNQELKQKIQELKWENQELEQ

P3mS = target: T41, P3mS; assay: two-hybrid library CC1
T41 chain: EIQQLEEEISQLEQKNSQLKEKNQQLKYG

P4 = target: T42, P4; assay: two-hybrid library CC1; conditions: mean of both orientations
T42 chain: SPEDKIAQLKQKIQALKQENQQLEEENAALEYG

P4mS = target: T43, P4mS; assay: two-hybrid library CC1; conditions: mean of both orientations
T43 chain: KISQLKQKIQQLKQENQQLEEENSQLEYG

P5SC1 = target: T44, P5SC1; assay: two-hybrid library CC1; conditions: mean of both orientations
T44 chain: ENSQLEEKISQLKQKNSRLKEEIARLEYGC

P5SC2 = target: T45, P5SC2; assay: two-hybrid library CC1; conditions: mean of both orientations
T45 chain: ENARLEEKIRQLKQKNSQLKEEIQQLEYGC

P5 = target: T46, P5; assay: two-hybrid library CC1; conditions: mean of both orientations
T46 chain: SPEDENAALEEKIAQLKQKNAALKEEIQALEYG

P5mS = target: T47, P5mS; assay: two-hybrid library CC1; conditions: mean of both orientations
T47 chain: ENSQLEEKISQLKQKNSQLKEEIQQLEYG

P6SC1 = target: T48, P6SC1; assay: two-hybrid library CC1; conditions: mean of both orientations
T48 chain: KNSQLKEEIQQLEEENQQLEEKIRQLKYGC

P6SC2 = target: T49, P6SC2; assay: two-hybrid library CC1; conditions: mean of both orientations
T49 chain: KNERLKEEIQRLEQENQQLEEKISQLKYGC

P6 = target: T50, P6; assay: two-hybrid library CC1; conditions: mean of both orientations
T50 chain: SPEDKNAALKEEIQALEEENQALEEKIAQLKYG

P6mS = target: T51, P6mS; assay: two-hybrid library CC1; conditions: mean of both orientations
T51 chain: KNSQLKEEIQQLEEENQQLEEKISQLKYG

P7 = target: T52, P7; assay: two-hybrid library CC1; conditions: mean of both orientations
T52 chain: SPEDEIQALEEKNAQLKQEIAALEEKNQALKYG

P7mS = target: T53, P7mS; assay: two-hybrid library CC1; conditions: mean of both orientations
T53 chain: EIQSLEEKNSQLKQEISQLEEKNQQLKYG

P8 = target: T54, P8; assay: two-hybrid library CC1; conditions: mean of both orientations
T54 chain: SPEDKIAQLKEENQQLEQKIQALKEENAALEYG

P8mS = target: T55, P8mS; assay: two-hybrid library CC1; conditions: mean of both orientations
T55 chain: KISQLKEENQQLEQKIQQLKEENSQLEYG

P9 = target: T56, P9; assay: two-hybrid library CC1; conditions: mean of both orientations
T56 chain: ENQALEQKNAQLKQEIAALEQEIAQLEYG

B1: 4H1845-bH (peptide)
chain: DENQELKKKIEELERKNWELEKKIQELER
Binder B1 has an interaction score (4H1845-bH) of 0.142, an interaction score (4H2442-bH) of -0.237 and an interaction score (4H2576-bH) of -1.7. The interaction score (4H2610-bH) was -0.549, the interaction score (4H2618-bH) was -1.52 and the interaction score (4H2667-bH) was 0.349. For the same binder, the interaction score (4H2697-bH) was 0.106, the interaction score (4H2717-bN) was -0.601 and the interaction score (4H2729-bH) was 0.473. For the same binder, the interaction score (4H3112-bH) was -0.698, the interaction score (4H3185-bH) was 0.639 and the interaction score (4H3189-bH) was 0.462. For the same binder, the interaction score (4H331-bH) was -1.2, the interaction score (4H3354-bH) was 0.334 and the interaction score (4H338-bH) was -0.243. For the same binder, the interaction score (4H3427-bH) was -0.323, the interaction score (4H3606-bH) was 0.808 and the interaction score (4H370-bH) was -0.319. For the same binder, the interaction score (4H3782-bH) was 0.165, the interaction score (4H3843-bH) was -0.224 and the interaction score (4H3855-bH) was -0.295. For the same binder, the interaction score (4H4001-bH) was -1.03, the interaction score (4H4001-bN) was -0.805 and the interaction score (4H454-bH) was -0.0899. It also gave an interaction score (4H462-bH) of -0.599, an interaction score (4H568-bH) of -0.447 and an interaction score (4H575-bA) of -1.1. For the same binder, the interaction score (4H607-bH) was -2.75, the interaction score (4H687-bH) was -0.46 and the interaction score (4H717-bH) was 0.319. The interaction score (4H72-bH) was 0.142, the interaction score (4H754-bH) was 0.391 and the interaction score (4H797-bH) was 0.175. It also gave an interaction score (4H883-bH) of 0.0604, an interaction score (4H908-bH) of -1 and an interaction score (4H918-bH) of -0.512. For the same binder, the interaction score (4H918-bN) was -1.11, the interaction score (4H953-bH) was -0.598 and the interaction score (4H967-bH) was -0.511. It also gave an interaction score (O7-bN) of -0.332.

B2: P3mS (peptide)
chain: EIQQLEEEISQLEQKNSQLKEKNQQLKYG
B2 was tested, and the interaction score (P3mS) was -3.24, the interaction score (P4) was -0.0449 and the interaction score (P4mS) was 0.221. It also gave an interaction score (P5SC1) of -2.77, an interaction score (P5SC2) of -2.78 and an interaction score (P5) of -2.93. The interaction score (P5mS) was -2.69, the interaction score (P6SC1) was -2.8 and the interaction score (P6SC2) was -2.5. The interaction score (P6) was -2.8, the interaction score (P6mS) was -2.74 and the interaction score (P7) was -2.64. The interaction score (P7mS) was -2.96, the interaction score (P8) was -2.54 and the interaction score (P8mS) was -2.87. For the same binder, the interaction score (P9) was -2.34.
